The target in assay [1] is V5His6-tagged polypeptide of human GIPF (GIPFt) (human). Description: cell-based or functional assay.
Assay [2] concerns the target human wild type, full-length GIPF polypeptide (GIPFwt) (human) (UniProt Q2MKA7). Description: cell-based or functional assay.
UniProt Q2MKA7, sequence (Q2MKA7 21-263 limits assumed): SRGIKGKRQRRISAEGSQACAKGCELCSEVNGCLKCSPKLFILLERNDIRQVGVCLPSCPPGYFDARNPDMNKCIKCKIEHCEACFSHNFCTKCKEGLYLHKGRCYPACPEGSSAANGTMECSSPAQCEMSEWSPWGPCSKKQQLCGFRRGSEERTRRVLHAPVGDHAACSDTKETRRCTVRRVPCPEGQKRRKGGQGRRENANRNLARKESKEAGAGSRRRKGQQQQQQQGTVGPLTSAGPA

V5His6-tagged polypeptide of human GIPF (GIPFt) (human), sequence (chain, as listed by the source limits assumed): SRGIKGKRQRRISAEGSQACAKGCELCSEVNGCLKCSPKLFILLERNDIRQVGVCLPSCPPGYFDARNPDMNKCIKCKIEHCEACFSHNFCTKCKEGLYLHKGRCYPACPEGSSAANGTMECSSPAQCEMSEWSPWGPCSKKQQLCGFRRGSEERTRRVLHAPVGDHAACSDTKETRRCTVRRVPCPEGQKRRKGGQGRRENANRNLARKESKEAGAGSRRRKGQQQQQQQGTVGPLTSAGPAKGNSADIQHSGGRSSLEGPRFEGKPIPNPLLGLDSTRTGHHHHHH

On to “furin protease (from UniProt P09958 108-794) (enzyme)”, for which the N-terminal sequence analysis of protein from HEK293 cells; ratio of mature to dominant mature forms (ratio mature:dominant mature) in assay [1] and in assay [2] was 0.5 in each case.
